Results from paper PMC7076015, “An epilepsy-associated mutation in the nuclear import receptor KPNA7 reduces nuclear localization signal binding”.

T1: MBP-CTCF(F4-F8) (Homo sapiens, UniProt P49711 351-489)
T1 sequence: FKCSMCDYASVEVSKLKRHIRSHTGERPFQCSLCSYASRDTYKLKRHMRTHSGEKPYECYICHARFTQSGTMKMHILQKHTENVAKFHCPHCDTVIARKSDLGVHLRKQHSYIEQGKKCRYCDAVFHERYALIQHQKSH

B1: KPNA7 exon 7 CTCF motif c.1030G>C (dsDNA)
DNA 1: ATCCAGAAGCAGGCAG
DNA 2: CTGCCTGCTTCTGGAT
B2: KPNA7 exon 7 CTCF motif WT (dsDNA)
DNA 1: ATCCAGAAGGAGGCAG
DNA 2: CTGCCTCCTTCTGGAT

Columns and labels:
MBP-CTCF(F4-F8) [1] = biological target: T1, MBP-CTCF(F4-F8); test: fluorescence anisotropy; 100 uM ZnCl2; apparent KD, fit bounds fixed to WT; above top protein concentration 34.5 uM; 20 mM Tris pH 8, 200 mM KCl, 100 uM ZnCl2, 1 mM DTT, 25 C; 10 nM dsDNA, MBP-CTCF up to 34.5 uM; conditions: protein: recombinant; tags: MBP (N-terminal, pMAL-c2g); label: 6-FAM at 5' end of reverse strand; blunt
MBP-CTCF(F4-F8) [2] = biological target: T1, MBP-CTCF(F4-F8); test: fluorescence anisotropy; 100 uM ZnCl2; apparent KD; 20 mM Tris pH 8, 200 mM KCl, 100 uM ZnCl2, 1 mM DTT, 25 C; 10 nM dsDNA, MBP-CTCF up to 34.5 uM; conditions: protein: recombinant; tags: MBP (N-terminal, pMAL-c2g); label: 6-FAM at 5' end of reverse strand; blunt

Row | Binder | Kd (MBP-CTCF(F4-F8) [1]) | Kd (MBP-CTCF(F4-F8) [2])
1 | B1 | 76 ± 16.2 µM | –
2 | B2 | – | 1.76 ± 0.084 µM
